From article PMC6389858

Assays:
[1] = molecular target: T1, OxyR (Escherichia coli K12 BW25113?) (UniProt P0ACQ4); test: EMSA; conditions: EMSA: 10 mM HEPES pH 7.3, 20 mM KCl, 1 mM MgCl2, 5% glycerol, poly dI-dC, NP-40, 25 C, 2 h; 6% DNA retardation gel
T1 sequence: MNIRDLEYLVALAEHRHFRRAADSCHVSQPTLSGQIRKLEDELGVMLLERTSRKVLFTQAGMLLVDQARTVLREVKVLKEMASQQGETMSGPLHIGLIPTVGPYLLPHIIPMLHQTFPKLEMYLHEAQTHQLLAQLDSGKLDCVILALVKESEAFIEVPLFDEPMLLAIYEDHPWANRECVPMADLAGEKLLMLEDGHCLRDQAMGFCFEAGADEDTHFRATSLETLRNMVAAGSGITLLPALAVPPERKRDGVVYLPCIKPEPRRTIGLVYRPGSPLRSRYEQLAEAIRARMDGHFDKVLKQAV

[2] = molecular target: T1, OxyR (Escherichia coli K12 BW25113?); test: competition; conditions: EMSA: 10 mM HEPES pH 7.3, 20 mM KCl, 1 mM MgCl2, 5% glycerol, poly dI-dC, NP-40, 25 C, 2 h; 6% DNA retardation gel

Sequence: ACTGGCCTGATAAGCCTGTTTACCTCGGGGCGCAGGCGCATCTGCAAAACTTCTACCAGAGTTTCGGTTTTATCCCTGTGACGGAGGTCTATGAAGAAGATGGTATCCCACACATTGGGATGGCACGCGAGGTAATTCAGGCGTAATCAACAACCCTTGTCTATAGTTAGTGACAGGTTTTACGCAAATGGAGAACGAGA (double strand) [PelaB-S (elaB promoter probe with OxyR binding site 2)]
- binding [1]: binds
- binding [2]: binds
